The source of these data is patent US20220298260A1 (MYTHIC THERAPEUTICS, published 2022).

In this assay the target is T1, FOLR1 (R&D Systems, Cat #5646-FR) (human, UniProt P15328 25-233).
T1 construct: Bought soluble protein; also called Folate Receptor 1
Nature of the assay: BLI, IgG on anti-human Fc sensor, 50 nM FOLR1.

Substitutions are numbered along the chain they refer to.

T1 sequence (P15328 25-233 limits assumed): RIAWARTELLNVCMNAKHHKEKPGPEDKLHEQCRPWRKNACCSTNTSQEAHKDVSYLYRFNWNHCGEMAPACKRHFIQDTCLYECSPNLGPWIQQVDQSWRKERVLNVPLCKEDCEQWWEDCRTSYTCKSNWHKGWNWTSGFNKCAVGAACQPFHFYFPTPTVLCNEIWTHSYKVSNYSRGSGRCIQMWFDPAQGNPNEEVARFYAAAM

B1: MYT0598 (antibody, V domains shown)
VH: QVQLVQSGAEVVKPGASVKISCKHSGYTFTGYFMNWVKQSPGQSLEWIGRIHPYDGDTFYNQKFQGKATLTVDKSSNTAHMELLSLTSEDFAVYYCTRYDGSRAMDYWGQGTTVTVSS
VL: DIVLTQSPLSLAVSLGQPAIISCKASQSVSFAGTSLMHWYHQKPGQQPRLLIYRASNLEAGVPDRFSGSGSKTDFTLTISPVEAEDAATYYCQQSREYPYTFGGGTKLEIK
notes: IgG
For the molecule B1, the binding result was “binds”.

B2: MYT1159 (antibody, V domains shown)
VH: B1 VH with H24A, Y27H, Y54H, F59H
VL: B1 VL
notes: IgG
In the case of B2, the binding result is reported as “binds”.

B3: MYT0635 (antibody, V domains shown)
VH: B1 VH with H24A, M105H
VL: B1 VL
notes: IgG
Turning to B3, the binding result is recorded as “binds”.

B4: MYT0617 (antibody, V domains shown)
VH: B1 VH with H24A, D57H
VL: B1 VL
notes: IgG
As for B4, the binding result is listed as “binds”.

B5: MYT0606 (antibody, V domains shown)
VH: B1 VH with H24A, Y32H
VL: B1 VL
notes: IgG
Regarding B5, the binding result was “binds”.

B6: MYT0630 (antibody, V domains shown)
VH: B1 VH with H24A, D100H
VL: B1 VL
notes: IgG
As for B6, the binding result is recorded as “binds”.

B7: MYT0625 (antibody, V domains shown)
VH: B1 VH with H24A, Q65H
VL: B1 VL
notes: IgG
For the molecule B7, the binding result is given as “binds”.

B8: MYT0629 (antibody, V domains shown)
VH: B1 VH with H24A, Y99H
VL: B1 VL
notes: IgG
Take B8: the binding result is on record as “binds”.

B9: MYT1155 (antibody, V domains shown)
VH: B1 VH with Y54H, T58H
VL: B1 VL
notes: IgG
Take B9: the binding result is “binds”.

B10: MYT0607 (antibody, V domains shown)
VH: B1 VH with H24A, F33H
VL: B1 VL
notes: IgG
For B10, the binding result is “binds”.

B11: MYT1559 (antibody, V domains shown)
VH: B1 VH with H24A
VL: B1 VL with K24H
notes: IgG
In the case of B11, the binding result is recorded as “binds”.

B12: MYT0627 (antibody, V domains shown)
VH: B1 VH with H24A, T97H
VL: B1 VL
notes: IgG
Take B12: the binding result is given as “binds”.

B13: MYT0604 (antibody, V domains shown)
VH: B1 VH with H24A, T30H
VL: B1 VL
notes: IgG
For B13, the binding result is “binds”.

B14: MYT0597 (antibody, V domains shown)
VH: B1 VH with K23H, H24A
VL: B1 VL
notes: IgG
Turning to B14, the binding result is listed as “binds”.

B15: MYT0632 (antibody, V domains shown)
VH: B1 VH with H24A, S102H
VL: B1 VL
notes: IgG
Consider B15, for which the binding result is “binds”.

B16: MYT0628 (antibody, V domains shown)
VH: B1 VH with H24A, R98H
VL: B1 VL
notes: IgG
As for B16, the binding result is “binds”.

B17: MYT0605 (antibody, V domains shown)
VH: B1 VH with H24A, G31H
VL: B1 VL
notes: IgG
Take B17: the binding result is reported as “binds”.

B18: MYT0612 (antibody, V domains shown)
VH: B1 VH with H24A, H52A
VL: B1 VL
notes: IgG
For the molecule B18, the binding result is listed as “binds”.

B19: MYT0619 (antibody, V domains shown)
VH: B1 VH with H24A, F59H
VL: B1 VL
notes: IgG
Consider B19, for which the binding result is “binds”.

B20: MYT0611 (antibody, V domains shown)
VH: B1 VH with H24A, I51H
VL: B1 VL
notes: IgG
On to B20, for which the binding result is reported as “binds”.

B21: MYT1158 (antibody, V domains shown)
VH: B1 VH with H24A, Y27H, Y54H, T58H
VL: B1 VL
notes: IgG
Take B21: the binding result is “binds”.

B22: MYT1156 (antibody, V domains shown)
VH: B1 VH with Y54H, F59H
VL: B1 VL
notes: IgG
In the case of B22, the binding result is given as “binds”.

B23: MYT1561 (antibody, V domains shown)
VH: B1 VH with H24A
VL: B1 VL with S26H
notes: IgG
Take B23: the binding result is listed as “binds”.

B24: MYT0620 (antibody, V domains shown)
VH: B1 VH with H24A, Y60H
VL: B1 VL
notes: IgG
Regarding B24, the binding result was “binds”.

B25: MYT0615 (antibody, V domains shown)
VH: B1 VH with H24A, D55H
VL: B1 VL
notes: IgG
For the molecule B25, the binding result is recorded as “binds”.

B26: MYT0618 (antibody, V domains shown)
VH: B1 VH with H24A, T58H
VL: B1 VL
notes: IgG
As for B26, the binding result is reported as “binds”.

B27: MYT0622 (antibody, V domains shown)
VH: B1 VH with H24A, Q62H
VL: B1 VL
notes: IgG
With B27, the binding result is “binds”.

B28: MYT1157 (antibody, V domains shown)
VH: B1 VH with T58H, F59H
VL: B1 VL
notes: IgG
As to B28, the binding result is on record as “binds”.

B29: MYT0610 (antibody, V domains shown)
VH: B1 VH with H24A, R50H
VL: B1 VL
notes: IgG
Consider B29, for which the binding result is reported as “binds”.

B30: MYT0626 (antibody, V domains shown)
VH: B1 VH with H24A, G66H
VL: B1 VL
notes: IgG
In the case of B30, the binding result is “binds”.

B31: MYT0616 (antibody, V domains shown)
VH: B1 VH with H24A, G56H
VL: B1 VL
notes: IgG
B31: the binding result was “binds”.

B32: MYT0614 (antibody, V domains shown)
VH: B1 VH with H24A, Y54H
VL: B1 VL
notes: IgG
Take B32: the binding result is on record as “binds”.

B33: MYT0633 (antibody, V domains shown)
VH: B1 VH with H24A, R103H
VL: B1 VL
notes: IgG
As for B33, the binding result is “binds”.

B34: MYT0637 (antibody, V domains shown)
VH: B1 VH with H24A, Y107H
VL: B1 VL
notes: IgG
For the molecule B34, the binding result is “binds”.

B35: MYT0636 (antibody, V domains shown)
VH: B1 VH with H24A, D106H
VL: B1 VL
notes: IgG
With B35, the binding result is recorded as “binds”.

B36: MYT0600 (antibody, V domains shown)
VH: B1 VH with H24A, G26H
VL: B1 VL
notes: IgG
With B36, the binding result is recorded as “binds”.

B37: MYT0608 (antibody, V domains shown)
VH: B1 VH with H24A, M34H
VL: B1 VL
notes: IgG
Consider B37, for which the binding result is “binds”.

B38: MYT0601 (antibody, V domains shown)
VH: B1 VH with H24A, Y27H
VL: B1 VL
notes: IgG
Consider B38, for which the binding result is on record as “binds”.

B39: MYT0621 (antibody, V domains shown)
VH: B1 VH with H24A, N61H
VL: B1 VL
notes: IgG
With B39, the binding result was “binds”.

B40: MYT0599 (antibody, V domains shown)
VH: B1 VH with H24A, S25H
VL: B1 VL
notes: IgG
In the case of B40, the binding result is “binds”.

B41: MYT0624 (antibody, V domains shown)
VH: B1 VH with H24A, F64H
VL: B1 VL
notes: IgG
As to B41, the binding result is “binds”.

B42: MYT0602 (antibody, V domains shown)
VH: B1 VH with H24A, T28H
VL: B1 VL
notes: IgG
As to B42, the binding result is “binds”.

B43: MYT0623 (antibody, V domains shown)
VH: B1 VH with H24A, K63H
VL: B1 VL
notes: IgG
As to B43, the binding result is “binds”.

B44: MYT1160 (antibody, V domains shown)
VH: B1 VH with H24A, Y27H, T58H, F59H
VL: B1 VL
notes: IgG
On to B44, for which the binding result was “binds”.
